Assay results published in patent US11918645B2, “Vaccines against hepatitis B virus” (priority 2012, dated 2024).

What was measured:
[1] = molecular target: T1, HLA-DR13 (α1*01:01;β1*13:01) (Homo sapiens, UniProt P01903+P01911, A100E/A169T/K41T/L162R/M171V/P40S/Q125H/Q178H/Q39Y/Q99D/R42S/S66N/W38E/Y61H); test: ProImmune REVEAL MHC class II binding assay of long peptides; conditions: percentage of the signal of the positive control peptide; positive binding score >=15%
T1 construct: purchased ProImmune
Excerpt: The highly frequent HLA class II alleles HLA-DR1 (α1*01:01;β1*01:01), HLA-DR15 (α1*01:01;β1*15:01), HLA-DR3 (α1*01:01;β1*03:01), HLA-DR4 (α1*01:01;β1*04:01), HLA-DR11 (α1*01:01;β1*11:01), HLA-DR13 (α1*01:01;β1*13:01), and HLA-DR7 (α1*01:01;β1*07:01) were selected. Each peptide was given a score relative to the positive control peptide, which is a known T-cell epitope.

[2] = molecular target: T2, HLA-DR15 (α1*01:01;β1*15:01) (Homo sapiens, UniProt P01903+P01911); test: as above; conditions: percentage of the signal of the positive control peptide; positive binding score >=15%
T2 construct: purchased ProImmune
Excerpt: (§1) The highly frequent HLA class II alleles HLA-DR1 (α1*01:01;β1*01:01), HLA-DR15 (α1*01:01;β1*15:01), HLA-DR3 (α1*01:01;β1*03:01), HLA-DR4 (α1*01:01;β1*04:01), HLA-DR11 (α1*01:01;β1*11:01), HLA-DR13 (α1*01:01;β1*13:01), and HLA-DR7 (α1*01:01;β1*07:01) were selected. Each peptide was given a score relative to the positive control peptide, which is a known T-cell epitope. The score of the test peptide is reported quantitatively as a percentage of the signal generated by the positive control peptide, and the peptide is indicated as having a putative pass or fail result. Good binders are considered to be those peptides with scores >=15% of the positive control as defined by Proimmune.

[3] = molecular target: T3, HLA-DR7 (α1*01:01;β1*07:01) (Homo sapiens, UniProt P01903+P01911, A100R/A102G/A103Q/D57E/D86V/E43K/F76Y/K127E/L162R/M171V/P40G/Q125H/Q99D/R195Q/R33Q/R42Y/R54Q/S133A/S149N/S66F/T210M/V115G/Y107V/Y59L/Y89S); test: as above; conditions: percentage of the signal of the positive control peptide; positive binding score >=15%
T3 construct: purchased ProImmune
Excerpt: as §1

[4] = molecular target: HLA-A*2402 (Homo sapiens, UniProt P04439, D101N/D140Y/D185E/E176V/E190D/F33S/G103R/G107R/I119L/I121M/I306V/K335N/L105A/L180Q/L300P/N151K/N90K/Q86E/Q94H/R106L/R138H/R89G/T104I/T345S/V100E/W191G/Y123F); test: ProImmune REVEAL MHC class I binding assay of nonamers; conditions: score as % of positive control peptide
Excerpt: (§2) The number of HLA class I binding registers contained in each peptide may be determined by determining the ability of the peptide to bind to a range of frequently occurring HLA class I molecules. HLA class I binding may be measured using the ProImmune REVEAL® MHC-peptide Binding Assay (ProImmune Ltd, Oxford, UK). The REVEAL™ MHC peptide-binding assay measures the ability of each peptide to stabilize the ternary MHC-peptide complex for […], HLA-A*0201, HLA¬A*0301, HLA-A*2402, HLA-B*0702, HLA-B*0801, HLA-B*3501 representative of main HLA class I supertypes. Each tested peptide is given a score relative to a pass/fail control peptide and also compared to a positive control peptide.
(§3) Detection is based on the presence or absence of the native conformation of the MHC-peptide complex. The highly frequent HLA class I alleles (HLA-A*0201, A*0301, A*1101, A*2402, B*0702, B*0801, and B*3501) were selected. Binding to MHC molecules was compared to that of a known T-cell epitope, a positive control peptide, with very strong binding properties. […] The score of the test peptide is reported quantitatively as a percentage of the signal generated by the positive control peptide, and the peptide is indicated as having a putative pass or fail result. Good binders are considered to be those peptides with scores 45% of the positive control as defined by ProImmune.

[5] = molecular target: HLA-B*0801 (Homo sapiens, UniProt P01889, A93T/A95T/D138N/E176V/E187T/K202T/Q94N/R180D/S35A/V36M/Y33D/Y91F); test: as above; conditions: score as % of positive control peptide
Excerpt: as §2, §3

[6] = molecular target: HLA-B*3501 (Homo sapiens, UniProt P01889, A329T/A93T/A95T/C349S/D201E/D98Y/E176V/E187L/E204Q/E69T/I218V/K202T/L119I/Q94N/R155S/R180L/S121R/S35A/S48A/T118I/V127L/V306I/V36M/Y140S/Y91F); test: as above; conditions: score as % of positive control peptide
Excerpt: as §2, §3

[7] = molecular target: HLA-A*0201 (Homo sapiens, UniProt P04439, D140Y/D185E/D98H/E176V/E277Q/G131W/G231S/I119V/I121R/I166T/I218V/L300P/L318F/N151K/N90K/P208A/P217A/Q86G/Q94H/R138H/R169H/T345S); test: as above; conditions: score as % of positive control peptide
Excerpt: as §2, §3

[8] = molecular target: T4, HLA-B*0702 (Homo sapiens, UniProt P01889); test: as above; conditions: score as % of positive control peptide
T4 construct: purchased ProImmune
Excerpt: as §2, §3

[9] = molecular target: T5, HLA-A*1101 (Homo sapiens, UniProt P04439, A114D/D185E/E176A/F33Y/L180Q/S129P/T187R); test: as above; conditions: score as % of positive control peptide
T5 construct: purchased ProImmune
Excerpt: as §2, §3

[10] = molecular target: T6, HLA-A*0301 (Homo sapiens, UniProt P04439); test: as above; conditions: score as % of positive control peptide
T6 construct: purchased ProImmune
Excerpt: as §2, §3

[11] = tested on: HLA-DP4 (α1*01:03;β1*04:01); test: ProImmune REVEAL MHC class II binding assay of long peptides; set-up: species or system human; conditions: percentage of the signal of the positive control peptide; positive binding score >=15%
[12] = tested on: HLA class I alleles; test: ProImmune REVEAL MHC class I binding assay, summary over the seven alleles; set-up: species or system human; conditions: for Number of allele (b): number of class I alleles for which positive binding was detected; for Number of HLA binders (a): total number binding epitopes detected for each long peptide, seven class I alleles
Excerpt: as §2, §3

[13] = tested on: HLA-DR3 (α1*01:01;β1*03:0); test: ProImmune REVEAL MHC class II binding assay of long peptides; set-up: species or system human; conditions: percentage of the signal of the positive control peptide; positive binding score >=15%
Excerpt: as §1

[14] = tested on: HLA-DR1 (α1*01:01;β1*01:01); test: as above; set-up: species or system human; conditions: percentage of the signal of the positive control peptide; positive binding score >=15%
Excerpt: as §1

T1 sequence (P01903 26-216, other chains not shown): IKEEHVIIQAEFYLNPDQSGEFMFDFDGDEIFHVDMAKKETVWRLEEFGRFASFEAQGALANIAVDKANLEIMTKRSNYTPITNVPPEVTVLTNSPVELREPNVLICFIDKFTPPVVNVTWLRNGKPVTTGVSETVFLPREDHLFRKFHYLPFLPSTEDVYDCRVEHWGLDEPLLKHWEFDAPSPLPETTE

Substance	binding score, HLA-DR13 (α1*01:01;β1*13:01) [1]	binding score, HLA-DR15 (α1*01:01;β1*15:01) [2]	binding score, HLA-DR7 (α1*01:01;β1*07:01) [3]	Number of nonamers having a binding score >= 45%, HLA-A*2402 [4]	Number of nonamers having a binding score >= 45%, HLA-B*0801 [5]	Number of nonamers having a binding score >= 45%, HLA-B*3501 [6]	Number of nonamers having a binding score >= 45%, HLA-A*0201 [7]	Number of nonamers having a binding score >= 45%, HLA-B*0702 [8]	Number of nonamers having a binding score >= 45%, HLA-A*1101 [9]	Number of nonamers having a binding score >= 45%, HLA-A*0301 [10]	binding score, HLA-DP4 (α1*01:03;β1*04:01) [11]	Number of allele (b) [12]	Number of HLA binders (a) [12]	binding score, HLA-DR3 (α1*01:01;β1*03:0) [13]	binding score, HLA-DR1 (α1*01:01;β1*01:01) [14]
NP113: unconjugated HBV long peptide, polymerase region 96-130 of virtual HBV proteome (VGPLTVNEKRRLKLIMPARFYPNVTKYLPLDKGIK; HBV CONSENSUS SEQUENCE)	0.00%	28.04%	99.17%	3	3	2	2	2	5	3	33.51%	7	20	49.98%	54.44%
NP151: unconjugated HBV long peptide, polymerase region 134-168 (PEHVVNHYFQTRHYLHTLWKAGILYKRETTRSASF; HBV CONSENSUS SEQUENCE)	0.00%	38.96%	19.41%	4	4	0	3	3	3	4	74.36%	6	21	0.00%	14.59%
NP753(K): unconjugated HBV long peptide, core KK + 738-770 (S to T at 743) + KKK (KKKEFGATVELLSFLPSDFFPSVRDLLDTASALYRKKK; HBV CONSENSUS SEQUENCE)	0.00%	0.00%	0.00%	3	1	1	3	1	1	0	0.65%	6	10	0.00%	0.11%
